Data as given in patent US9803013B2, “Biological materials and uses thereof” (BioInvent International AB, priority 2005, dated 2017).

B1: B11: fully human IgG1 antibody specific for ICAM-1; VH and VL sequences of FIG. 10 (SEQ ID NOs. 6 and 8) (antibody, listed as Homo sapiens, V domains shown)
VH: EVQLLESGGGLVQPGGSLRLSCAASGFTFSNAWMSWVRQAPGKGLEWVAFIWYDGSNKYYADSVKGRFTISRDNSKNTLYLQMNSLRAEDTAVYYCARYSGWYFDYWGQGTLVTVSS
VL: QSVLTQPPSASGTPGQRVTISCTGSSSNIGAGYDVHWYQQLPGTAPKLLIYDNNNRPSGVPDRFSGSKSGTSASLAISGLRSEDEADYYCQSYDSSLSAWLFGGGTKLTVLG
B2: C11: fully human IgG1 antibody specific for surface IgM; VH and VL sequences of FIG. 11 (SEQ ID NOs. 10 and 12) (antibody, listed as Homo sapiens, V domains shown)
VH: EVQLLESGGGLVQPGGSLRLSCAASGFTFGSYEMNWVRQAPGKGLEWVSVIYSGGSTYYADSVEGRFTISRDNSKNTLYLQMNSLRAEDTAVYYCARDTNPYYYYGMDVWGQGTLVTVSS
VL: QSVLTQPPSASGTPGQRVTISCSGSSSNIGNNAVNWYQQLPGTAPKLLIYRNNQRPSGVPDRFSGSKSGTSASLAISGLRSEDEADYYCQSYDSSLNGQVFGGGTKLTVLG

Tests used:
PC-3 cells = assay: Apoptosis induction in carcinoma cells (cross-linked IgG, 16-24 hours, Annexin V/PI); assay type: cell-based, human; details: PC-3, cross-linked IgG
Procedure: The prostate carcinoma cell line PC-3 was grown in Complete Growth Medium (RPMI 1640, supplemented with 10% FCS, 10 mM HEPES, and 2 mM L-Glutamine) to 80% confluency in a 6 well plate. The prostate carcinoma cell line DU145 was grown in MEM with Earl's salts, supplemented with 10% FCS, 1 mM sodium pyruvate, and 1 mM non-essential amino acids and the derivate of a melanoma cell line MDA MB 435 was grown in DMEM supplemented with 10% FCS.
For apoptosis assays cells were washed in PBS and serially diluted B11 IgG1 (or B1 IgG1, Trastuzumab or negative antibody control for controls) was added to individual wells and binding was allowed during a 1-2 h incubation at 4° C. The cells were washed and Complete Growth Medium was added, containing cross-linking antibody, Fab′2 Goat anti-Human Fab′2, at 10 μg/ml. Cells were incubated in a humidified atmosphere, with 5% CO2 at 37° C., for 16-24 hours. […] The percentage apoptotic cells was determined by the formula: % apoptotic cells=100−% AF488−AV/PI−/−.
Cells were seeded in 6 well plates with Complete Growth Medium three days before the onset of the experiment. […] Cells were washed in ice-cold PBS, subjected to Annexin V/propidium iodide staining, and analysed for viability/apoptosis as described in example 5 above.

ICAM-1 = ICAM-1 (Homo sapiens, UniProt P05362); assay: Binding to recombinant ICAM-1 (ELISA)
Procedure: FIG. 12C BI-505 binds specifically to ICAM-1. (a) Pre-incubation with recombinant ICAM-1, but not VCAM, blocks BI-505 binding to targeted tumor B cells.
(FIG. 21A) BI-505 IgG1, IgG4 and IgG1 N297Q antibodies were analyzed for binding to recombinant ICAM-1 by ELISA.

RPMI-8226 myeloma cells = assay: NK-cell deficient NOD/Shi-scid/IL-2Rγ−/− mouse model; assay type: in vivo; details: RPMI-8226 grafted to NOD/Shi-scid/IL-2Rγ−/− mice
Procedure: (FIG. 20G) Tumor growth in BI-505 or control antibody treated NK-cell deficient NOD/Shi-scid/IL-2Rγ^−/− mice transplanted with RPMI-8226 myeloma cells. ***p<0.001.
Six-eight weeks-old female NOD/Shi-scid IL-2Rγ^−/− mice were obtained from Taconic, Denmark. Five million (5×10^6) RPMI-8226 or U266 tumor cells in 200 μL of RPMI 1640 were intravenously injected into the caudal vein (day 0). The tumor cell injection was performed 2 hr after whole body irradiation of mice (1.5 Gy, Cesium 137, IBL 637). At day 4, mice were randomized into 6 groups and treatment was initiated according to the schedule below.

[1] = tested on: mouse, rat, rabbit, and cynomolgus monkey ICAM-1; assay: BI-505 cross-reactivity to ICAM-1 of animal species used for toxicological studies; assay type: binding; details: animals commonly used for toxicological evaluation
Text: The cross reactivity of BI-505 to mouse, rat, rabbit, and cynomolgus monkey ICAM-1 was investigated using several methods (i.e. immunohistochemistry, flow cytometry, and enzyme-linked immunosorbent assay [ELISA]) and sources of target protein (tissue, ICAM-1 transfected cells, endogenous ICAM-1 expressing cells, and recombinant ICAM-1 protein). Polyclonal anti-mouse ICAM-1, anti-rat ICAM-1, anti-rabbit ICAM-1, and anti-cynomolgus ICAM-1 antibodies were used as positive controls in experiments. Isotype control human IgG1 was used as negative control for BI-505 and species matched polyclonal IgG lacking specificity for ICAM-1 served as negative controls for ICAM-1 specific polyclonal antibodies.

T cells = assay: T cell proliferation (CFSE); assay type: cell-based, human; details: immobilized (air-dried or wet coated) or in solution
Procedure: (FIG. 23F) Antibody induced T-cell proliferation. CFSE-labeled T-cells were incubated with BI-505, isotype control IgG or anti-CD3 (okt-3) IgG hyperimmobilised to cell culture plates by air-drying “A” or wet-coating “W”. Cells were cultured for 6 days, and T cell proliferation was monitored by flow-cytometry as decreased CFSE signals.
Cytokine release and T cell proliferation are thought to be common causes of mild and severe adverse reactions to antibody therapy. In order to further investigate any undesirable effects of BI-505 on ICAM-1 expressing immune cells, we therefore assessed putative effects of BI-505 on peripheral blood mononuclear cell (PBMC) cytokine release and T cell proliferation. In order to maximize the chances of identifying any PBMC-agonistic properties of BI-505, we used two different antibody-coating protocols in which the antibody was hyper-cross-linked as previously described (Stebbings et al., 2007).
T cells used in the proliferation assay were stained with CFSE (carboxyfluorescein diacetate, succinimidyl ester; Invitrogen). The CFSE-labeled cells were seeded at a density of 150,000 cells/well in wet and air-dried antibody-coated plates. The cells were cultured for 6 days with one renewal of medium after 3 days. AccuCheck Count Beads (Invitrogen) were used to ensure accurate quantification of cell proliferation in the flow cytometry. […]

[2] = tested on: carcinoma cell lines initially tested; assay: IgG binding to tumour cell lines, flow cytometry; design: species or system human; details: all carcinoma cell lines initially tested
Text: FIG. 6—Binding of B1, B11, C11 IgG, to tumour cell lines of different origin. The antigen distribution of antigens targeted by the B1, B11, and C11 antibodies on different carcinoma cell lines was investigated by flow-cytometry.
The antigen distribution of human antibody targeted antigens, mainly for B11, on different carcinoma cell lines was investigated. Cells (MCF-7 and MDA MB 435S breast carcinoma, JAR and JEG-3 chorio-carcinoma, A549 lung carcinoma, TCC-SUP urinary bladder carcinoma, MDA MB 435 melanoma, HPAC, PANC-1 and BxPC-3 pancreatic carcinoma, PC-3 and DU145 prostate carcinoma, LS174 T, CaCo2, and Lovo colorectal carcinoma, and THP-1 monocytic leukaemia cells), were washed in PBS, and resuspended at 4×10^6 cells/ml in Complete Medium (200,000 cells/50 […] sample). […] Cells were incubated with either of the antibodies for 1 hour on ice, washed by resuspension in PBS/BSA 0.5%, centrifuged at 1200 rpm for 5 min, and complete aspiration of the supernatants was undertaken. Cells were incubated with PE-conjugated Goat F(ab′)2 anti-Human IgG (Caltag Laboratories, Cat no: H10104), diluted 1/50 in PBS/BSA 0.5%, for 30 min, on ice. Following resuspension of in 300 μl PBS/BSA 0.5%, cells were analysed for IgG binding using a FACScan instrument.

Sequence of ICAM-1 (P05362 28-532): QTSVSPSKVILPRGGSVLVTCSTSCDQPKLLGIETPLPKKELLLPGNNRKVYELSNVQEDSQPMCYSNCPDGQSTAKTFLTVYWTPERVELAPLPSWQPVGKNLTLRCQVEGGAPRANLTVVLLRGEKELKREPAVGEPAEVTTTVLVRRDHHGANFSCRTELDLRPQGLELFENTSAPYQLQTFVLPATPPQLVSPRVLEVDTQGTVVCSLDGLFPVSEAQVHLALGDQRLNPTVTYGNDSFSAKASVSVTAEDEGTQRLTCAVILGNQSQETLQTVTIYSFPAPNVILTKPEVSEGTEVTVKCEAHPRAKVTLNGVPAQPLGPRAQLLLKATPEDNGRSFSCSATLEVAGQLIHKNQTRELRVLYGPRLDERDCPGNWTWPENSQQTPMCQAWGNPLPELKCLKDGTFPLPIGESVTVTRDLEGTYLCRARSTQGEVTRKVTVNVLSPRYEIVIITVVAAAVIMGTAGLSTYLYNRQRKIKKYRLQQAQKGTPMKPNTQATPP

Molecule | Apoptosis Induction (PC-3 cells) | binding to recombinant protein (ICAM-1) | antitumor activity (RPMI-8226 myeloma cells) | cross-reactivity with animal ICAM-1 [1] | T cell proliferation (T cells) | binding [2]
B1 | induce apoptosis | binds dose-dependently | significant antitumor activity | does not, however, cross-react | did not induce T cell proliferation | 
B2 |  |  |  |  |  | lack of binding
